# Laboratory results: US6861578B1, “Method for plant protection against insects or nematodes by transformation with a nucleic acid encoding equistatin” (Plant Research International B.V., priority 1997, dated 2005)
# Tests used:
# cathepsin D = cathepsin D (Homo sapiens, UniProt P07339); experiment: Cathepsin D inhibition, steady-state hydrolysis of chromophoric substrate; active site titration; format: biochemical
# Experimental: Residual activity is expressed as percent of control activity in samples containing no inhibitor.
# The kinetics of binding of equistatin to cathepsin D was performing using a synthetic substrate which contains a chromophore, such as a nitrophenylalanine residue, in the P1′ position. The assay sensitivity, afforded by H-Pro-Thr-Glu-Phe*Nph-Arg-Leu-OH (SEQ ID NO:8) as substrate, alowed us to use 6.4 nM concentration of the enzyme as a minimal concentration in the test.
# [1] = system: endoprotease activity of Colorado potato beetle larval gut extracts; experiment: Broad spectrum endoprotease activity of Colorado potato beetle gut extract, Z-Phe-Arg-pNA; format: biochemical, Leptinotarsa decemlineata
# Text: (§1) Guts of final instar Colorado potato beetle larvae reared on methyl jasmonate induced plants were isolated and extracted essentially as described (Bolter and Jongsma, J. Insect Physiol. 41: 1071-1078). In these gut extracts the proteases that are sensitive to the protease inhibitors of potato are already complexed. The residual protease activity is composed of potato protease-inhibitor-insensitive proteases which were induced in response to the methyl jasmonate induced potato inhibitors. These proteases are the proteases that render the beetle larvae insensitive to protease inhibitor defense of the potato plant. Wle tested a broad range of different cysteisie protease inhibitors for activity specifically against these induced potato protease inhibitor-insensitive cysteine protesses. Nearly all of these inhibitors were purified at the Jozef Stefan Institute in Slovenia. Testing their potential against Colorado potato beetle was done using both general protein substrates (azocasein, table 2) as well as specific synthetic substrates (L-Arg-pNA, table 3; pGlu-Phe-Leu-pNA, table 4; Z-Phe-Arg-pNA, table 5; Z-Arg-Arg-pNA, table 6). In specific cases inhibitors were tested at two concentrations, eauimolar and in excess to the protease, in order to obtain an indication of the tightness of the complex. […] Importantly, this class of inhibitors was capable of inhibiting nearly all general cysteine protease activity. The equistatin peptide molecule and a functional derivative thereof were not very active against the aminopeptidase-like cysteine protease activity. […] The best combination of inhibitors for full toxicity against the Colorado potato beetle would therefore be a combination of equistatin or p41 invariant chain fragment and stefin-like inhibitors.
# [2] = system: endoprotease activity of Colorado potato beetle larval gut extracts; experiment: Narrow spectrum endoprotease activity of Colorado potato beetle gut extract, Z-Arg-Arg-pNA; format: biochemical, Leptinotarsa decemlineata
# Text: as §1
# leafminer proteases = experiment: Protease activity of adult leafminer fly extract, FITC-hemoglobin; format: biochemical, Liriomyza trifolii; conditions: leafminer pH 3.5; equistatin purified from sea anemone
# Experimental: Adult western flower thrips (Frankliniella occidentalis) and leafmirer flies (Liriomyza trifolii) adult were harvested from a culture maintained on chrysanthemum plants and complete thrips and flies were homogenized in extraction on buffer (200 mM β-alanine-HCl, pH 3.5) in a volume of 5 times the weight of the insects. The buffer pH was at the previously determined pH optimum of protease activity towards hemoglobin. Final instar Colorado potato beetle larvae maintained on potato plants as described in example 5 were checked for gut aspartic protease activity by preparing a total gut extract in pH 3 buffer which is optimal for Colorado potato beetle aspartic proteases (200 mM glycine, pH 3). Guts were homogenized in 100 μl buffer per gut. Third instar western corn rootworm larvae maintained on corn roots were used to remove the guts. Ten guts were homogenized in 100 μl water and spinned twice to remove insoluble material. Two types of buffers were used in the enzymatic assay. One with a pH presumably favoring cysteine proteases (50 mM MES, pH 6.5; 0.6 mg/ml L-cysteine) and one for detecting aspartic proteases (200 mM glycine, pH 3). Supernatants were stored at −20° C.
# 2 μl gut extract was combined with 2 μl inhibitor (2 mM pepstatin in methanol, 4 mM E64 in water, 2 mg/ml recombinant equistatin in water. The concentration of the other proteinaceous inhibitors was not known exactly). Appropriate buffers were added to a final volume of 100 μl. After 15′ preincubation 20 μl substrate (5 mg/ml FITC-hemoglobin) was added and incubated for 30-45 min at 37 C.
# Reaction was stopped by the addition of 100 μl 10% TCA. Tubes were centrifuged and 100 μl supernatant mixed with 100 μl 10 N NaOH was measured on a fluorimeter for the extent of hemoglobin hydrolysis. Measurements were done in duplicate on one (thrips, leafminer and western corn rootworm), or three (Colorado potato beetle) different gut extracts and varied by a maximum of +/−5%.
# [3] = system: Colorado potato beetle larvae; experiment: Toxicity of equistatin painted on potato leaves towards Colorado potato beetle larvae; format: in vivo, Leptinotarsa decemlineata
# Experimental: Potato tubers of cultivar Surprise (Solanum tuberosum) were sprouted. Sprouted tubers were planted in 1 l pots and grown for 3-4 weeks at a 22/18° C., 16/8 hr day night rhythm. Plants 10-15 cm high were placed in glass jars together with a paper wick on which 2 ul methyl jasmonate was pipeted. Jars were sealed immediately with parafilm and placed in a climate chamber of 30° C. with continuous light. Control plants were placed in a chamber of 25° C. with a 16-8 hr day night rhythm. After one day at 30° C. plants were taken from the jars and placed in the same chamber as the control. Plants were used on day 3. Freshly treated plants were used for each subsequent day of feeding. […] The top meristems were removed from the plants and painted on both sides with a 175 μM solution of recombinant equistatin in 0.3% agar obtained by mixing 1:1 a stock solution of 350 μM equistatin with 0.6% water agar. Controls were painted with 0.3% water agar. The agar solution was applied at a concentration of 30 μl/cm2.
# The final concentration on the leaf was estimated to be 70 μM which is equivalent to 1.4 mg/g leaf. Painted leaves were placed in a tube containing 0.4% agar and out on top of a filterpaper inside a petridish. 21-26 newly hatched Colorado potato beetle larvae were placed on the leaves and the petridish was put in an incubator set at 28° C. Everyday fresh painted leaves replaced the old ones.
# thrips females = experiment: Oviposition rate of thrips females in Murai cages; format: in vivo, Frankliniella occidentalis
# Experimental: A sample of 142 μM recombinant equistatin purified as described in example 4 was assayed for activity towards thrips. Sample was acidified with HCl to pH 3 to stabilize the equistatin protein. Controls contained acidified water or 2.5 mg/ml BSA dissolved in acidified water. The oviposition rate of thrips females was assayed using so-called Murai cages. Briefly, perspex tubes closed on side with a fine gauze were inoculated with 10 females and bee pollen. Tubes were closed with parafilm and 300 μl fluid was placed on top of the parafilm. A second layer of parafilm enclosed the fluid. Pollen and sample fluid were replaced every day for two days. Eggs deposited in the liquid sample were counted on day 2.
# [4] = recombinant equistatin on MeJa treated plants
# [5] = recombinant equistatin on control plants
# [6] = recombinant equistatin on methyl jasmonate (MeJa) treated plants
# Sequence of cathepsin D (P07339 65-412, species assumed): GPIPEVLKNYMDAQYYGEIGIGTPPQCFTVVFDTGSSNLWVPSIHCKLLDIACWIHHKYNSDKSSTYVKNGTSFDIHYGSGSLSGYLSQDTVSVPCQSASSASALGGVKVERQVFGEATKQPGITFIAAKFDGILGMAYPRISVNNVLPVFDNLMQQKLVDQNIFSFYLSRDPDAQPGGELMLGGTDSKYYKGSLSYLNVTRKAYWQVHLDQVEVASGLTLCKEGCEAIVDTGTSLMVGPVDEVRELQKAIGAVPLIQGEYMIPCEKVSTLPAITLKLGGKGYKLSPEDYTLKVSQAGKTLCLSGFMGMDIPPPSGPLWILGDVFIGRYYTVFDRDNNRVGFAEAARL
molecule,measurement,setting,value
"equistatin: cysteine/aspartic protease inhibitor from sea anemone Actinia equina with three type I repeated thyroglobulin domains; purified or recombinant from E. coli (protein, left off: large carriers; small tags and cut ends, purified or recombinant from E. coli) SLTKCQQLQASANSGLIGTYVPQCKETGEFEEKQCWGSTGYCWCVDEDGKEILGTKIRGSPDCSRRKAALTLCQMMQAIIVNVPGWCGPPSCKADGSFDEVQCCASNGECYCVDKKGKELEGTRQQGRPTCERHLSECEEARIKAHSNSLRVEMFVPECLEDGSYNPVQCWPSTGYCWCVDEGGVKVPGSDVRFKRPTC",Ki,"cathepsin D; cathepsin D, steady state velocity, chromophoric substrate",0.3 nM
same,equistatin needed for the saturation of 1 mol of cathepsin D,cathepsin D; titration of cathepsin D with equistatin (FIG. 12),1 mol
same,"% of residual activity, equimolar",[1]; equimolar,30%
same,"% of residual activity, excess inhibitor",[1]; excess inhibitor,20%
same,"% of residual activity, equimolar",[2]; equimolar,20%
same,"% of residual activity, excess inhibitor",[2]; excess inhibitor,−5%
same,residual protease activity,leafminer proteases,24%
same,"percent mortality, day 1",[3]; [4],0%
same,"percent mortality, day 2",[3]; [4],23%
same,"percent mortality, day 3",[3]; [4],77%
same,"percent mortality, day 4",[3]; [4],92%
same,"percent mortality, day 1",[3]; [5],0%
same,"percent mortality, day 2",[3]; [5],10%
same,"Larval weight, day 3",[3]; [5],0.5 mg/larvae
same,"percent mortality, day 3",[3]; [5],52%
same,"Larval weight, day 4",[3]; [5],0.7 mg/larvae
same,"percent mortality, day 4",[3]; [5],76%
same,"Larval weight, day 3",[3]; [6],n.g.
same,"Larval weight, day 4",[3]; [6],n.g.
same,"Oviposition rate, eggs per female per day","thrips females; 142 μM recombinant equistatin, pH 3, eggs counted on day 2",0.3 eggs per female per day
same,"Oviposition rate, relative percentage",thrips females; relative to BSA diet = 100%,17%
